Experiment: soluble on expression in E. coli; label from the status in PepcDB or PDB records

Sequence | soluble on expression in E. coli
MGSDKIHHHHHHMNLDHLRYFVALSRTENYTQTAKLLHITQPSLTKAIHSLEAELNIDLFQKAGRSVTLTPAGKVFASDVESALLLLDKSVTNIKRFDQQKAPIRIAALRTLSIKWLPDIAQRFLQLSPHAAVQFQFNTDTGLSPDILNGLRNNKYDVAFCSKMDHFSDIEFFPVAEQTMVCITPTTHPLANRSSINLAETLAYPQITFSQRSGLHPIMQKLFNDCGGQPISAYAVEEDQAIAGLVASGFGIAVVPNMSILQTMPVKIIPLSFPTWQRILYMGTLKHRTPQPAVEEFITFVRDQSKTLSVNNI | not soluble
MGSDKIHHHHHHMAKGLFDRYIWLIDTIYRAGKITFEEINKRWLRTEMSNGEEIPLRTFHNHRKAIETMFDINIECNKRAGYYYYIENADDIDKDKIKKWLLNTFAINNLANESHRLKQRILFEDIPSGKQYLSSIIEAMLENRIIEITYQSYWKEEANTFTIEPFCVKVFKQRWYIIARSPYYDTIMIYALDRIQNLQVTDITFNYPSDFDPQSYFEFSFGIVVDEICNIDKIRIKVYGKKCQYIKALPLHHSQSEVETTKSYSIFEYLLKPTYDFCQELLSHGDEIEVLSPTSLKEQIKEIVKNMSRYYN | not soluble
MAHCTEYMNAPKKLPADVAEELATTAQKLVQAGKGILAADESTQTIKKRFDNIKLENTIENRASYRDLLFGTKGLGKFISGAILFEETLFQKNEAGVPMVNLLHNENIIPGIKVDKGLVNIPCTDEEKSTQGLDGLAERCKEYYKAGARFAKWRTVLVIDTAKGKPTDLSIHETAWGLARYASICQQNRLVPIVEPEILADGPHSIEVCAVVTQKVLSCVFKALQENGVLLEGALLKPNMVTAGYECTAKTTTQDVGFLTVRTLRRTVPPALPGVVFLSGGQSEEEASVNLNSINALGPHPWALTFSYGRALQASVLNTWQGKKENVAKAREVLLQRAEANSLATYGKYKGGAGGENAGASLYEKKYVY | soluble
MTINEPLLSPLEQVVRNIEQVIVGKRNVIVLSLTALLAKGHVLLEDVPGVGKTMLVRALAKSFSAELKRIQFTPDLLPSDVIGVSVYNPKTQQFEYKPGPIVAHIVLADEINRTSPKTQSALLEAMEEGSVTVDGVTRALPQPFFVMATQNPIEYEGTYPLPEAQLDRFLLKLHMRYPSPDEEIEMLNRLEKTAPLAEIGPVMSLDELLALQRKVADVHVSDTVKRYIVDLIQQSRQHEAVYLGVSPRGSVALMKAAQAYAFIHGRDFVIPDDVQQLAPYVLAHRLLVRPEAKWDKFDAETIIGQLIARTPVPVPGRR | not soluble
MGSDKIHHHHHHMYVAVKGGEKAIEAAHQLQSCRRRGCTDIPELDCSQIEQQLNLAVDRVMTEGNIYDRQLAALAIKQASGDLVESIFLLRAYRSTLPRWGISQPLNTPDMRLERRVSAIFKDLPGGQLLGPTYDYTHRLLDFSLLADGEDPVAPQPDAVYEDEGTREHIPHAFQFLAQQHLVPERNISDDSNPSDITMEPPSYPGTRAARLQQLFRGDEGFLLSLGYSTQRGYGRNHPFVSEIRTGYITVSIVAEEVGFAIDIGEILLTECETVNGFVKPANDAPHFTRGYGLAFGRSERKAITVALADRALQAADYQEEVRGPAQDEEFVLSHADNVEAAGFVSHLKLPHYVDFQSELELLKRLREEYLASVPRSKA | not soluble
MSLSNWPYPRIVAHRGGGKLAPENTLASIDVGAKYGHKMIEFDAKLSKDGEIFLLHDDNLERTSNGWGVAGELNWQDLLRVDAGSWYSKMFKGEPLPLLSQVAERCREHGMMANIEIKPTTGTGPLTGKMVALAARELWAGMTPPLLSSFEIDALEAAQQAAPELPRGLLLDEWRDDWRELTARLGCVSIHLNHKLLNKARVMQLKDAGLRILVYTVNKPQRAAELLRWGVDCICTDAIDVIGPNFTAQEGHHHHHH | soluble
MSSLMCHGGGLPEVRVARPSGRAERIAALGELCRAGSIVHIGEAARQIGASEITIRRDLSVGAGGLVCLGGYVMRASEGAEGYSLTAAEASEAGAKEALAVRAAALIEPGDTVFLDCGTTTPYLAARVPQNARVTVVTQALNIAETVARLTGVNLILLAGIYHPETASFSSEEAVAMLGRINITKGFFSAAGVHETEGVTCFHFHEVPVKRAALARSRQPYLVCDGSKWGRLRPATYARLEEFEGWIGAPDRAALEHHHHHH | not soluble
MSQGHRDAGAAACRTIIVTNHCPPIMRKRDIWRVDQFHLLRKVGSGYASTVYLGTCRTSGNQVAVKLYHKQKLSELNHFQVAREITIHSSLDHKNIIQLWAAFEDQYGIYLVFEYASKGDVFTEVERRGGQLDEAETVRAVVYPFLSALDYLHSRCIIHRDIKPENLLFTATGVLKVADFGLSINFSQERPVTRVGTLDYMAPEVVVCPDKHRPQDHKELKHLHYTPLVDAWAVGVLAYELIVGRPPFDKGQKKATIAEILNSEPFIPPWLSEGATHFIRWSLTKEVGKRPSVQQLAEHPWIVSHMKQSVLAPARRQLVKTDSFVEPRQLGFRGSNAPGAGEPSGPSKEPPRPLQVSSVAQGGRFLGHSSSMSAMDGMRYRDIHLDSVTGGMASAATEALKSVKRVSDGDGTTGGRPSAAGGRVSRAGTARNSGTGQAPLSRMNSMSAQAVVAAAAAAMASGSFGGAAHGSEDSPKGGRALTREELYASLTAPLGGRGSPVLARSFTAGRASPAPQQMAPLPTNAGRKSGGGGLGSGRSSLSGQATGAPPSRGAAELAHDLSRLRVDSAASGGGGAAGPSTSASGAVPYSPGKGSSGIRPSPPQAPSPTARGLRTGSPLIPSRLSQSFTSPVSPLAAGSNASAGTPHLSRLGKTSNSGIVPAVATANTPGSARPPAGMDAHSSAASSAAAAGAQSSPHQPAAAAAGSSLTVSTTPASPGGSSGYGQTRASPRELPGERDPELEDSEVEDEPETERSPSKSKSLFKKIFS | not soluble
MFVEALKRQNPALISAALSLWQQGKIAPDSWVIDVDQILENGKRLIETARLYGIELYLMTKQFGRNPWLAEKLLALGYSGIVAVDYKEARVMRRAGLPVAHQGHLVQIPCHQVADAVEQGTDIITVFTLDKAREVSAAAVKAGRVQPVLLKVYSDDDFLYPGQESGFVQHSLHEVIAEIKKLPGLHLAGLTHFPCLLWDEAAGKVLPTPNLHTLVQARDQLAKSGIAIEQLNVPSATSCTSLPLLAEYGATHAEPGHALTGTIPANQQGDQPERIAMLWLSEISHHFRGDSYCYGGGYYRRGHAQHALVFTPENQKITETNLKTVDDSSIDYTLPLAGEYPVSSAVVLCFRTQIFVTRSDVVLVSGIQRGEPEIVGRYDSLGNPLEA | not soluble
MKEEAVRVIEEVLKQGRTAMVEYEAKQVLKAYGLPVPEEKLAKTLDEALEYAKEIGYPVVLKLMSPQILHKSDAKVVMLNIKNEEELKKKWEEIHENAKKYRPDAEILGVLVAPMLKPGREVIIGVTEDPQFGHAIMFGLGGIFVEILKDVTFRLVPITEKDARKMIQEIKAYPILAGARGEEPADIDAIVDMLLKVSKLVDDLKDYIKEMDLNPVFVYNKGEGAVIVDSRIILKPKD | soluble
MGHHHHHHSHMSHKNMKLKERVLIPVKQYPKFNFVGKILGPQGNTIKRLQEETGAKISVLGKGSMRDKAKEEELRKGGDPKYAHLNMDLHVFIEVFGPPCEAYALMAHAMEEVKKFLVPDMMDDICQEQFLELSYLNGVPEPS | not soluble
MPKASDIKKGSAIEHNGKVFFVKEISKLTPSGRAGATLFRMRMYDVATGAKSDESFKADDMINLADFSRRSATFSYVDGNEYVFMDSEDYTPYNFNKEAIEEELLFITEETQGLQILIVDGAPVAIELPSAVDLEIVETAPSIKGASASARTKPATMTTGLTVQVPEYIANGEKVKINTTEHKFMSRALEHHHHHH | not soluble
MEKKLVPQSISKERLQKLEAQATLTPQQEEAKARKIEREKARLKELNIPTESKESKDCSPAGMINPYALTEVILERPLDWSNPRTTDIVERVLGSSMQDLSKGDSVLRAGRDQNAEVKIVDSVLTKTQRGQDGLERILESFNDYDMPPEEKEEAAPKAKKAAQKLDIDDLREQALSSTTITKEISKIILPTKNLRDDNNTVHQYREVGFQSNGAHNLWDTVVQGIAGDC | not soluble
AGKPDWDWQPAPKNEALIAAVSAAAQEGLNAAYQIREKQARTTKLREVYAAVQAAMAEQAAQAGQPAPDSVGVDNILFDLEARIVRSQILNGEPRIDGRDTRTVRP | not soluble
MRREKTMDTLIRSIMIKSKRKMDAKVAQFGLTTQQARVLGFLNDNAANEIIQKDLQRIFQTRGASITSLIQGLEKKQLISRKPSLRDGREKVVTLTKEGKDIVDEFNASFPREDDKAKKILSADEYKTFIELLSKIDDQTDLEHHHHHH | soluble
MGSDKIHHHHHHMGACENRWTVAKALRFPGDALQTILVAAPRGDLSTFFSIECTKRVHTGRCVTTANALKVQAFHTTDVTEQVRATPGWQQQYRQMSPGYFSGELRCLGLDGVEVYEERLNTRVEQFFRAPSGSLAFCFDRSENSLYLLNEQSRNIWITPENYQEVAVVFDQAFLARHGLDPQRLEGLFMVPLGSGQNALFGSWLSATLTRLGEEGCPLQGQALAEQLLEDCLFILDNASQRLQGVALGRRDEERAIMHRVSEWAADCPEETLNLLELADVAGVSLRQLQQAFKAFTGMPPAHWLRLRRLNGARRDLLRGGGVTVAEVAMRWSFWHLGRFSESYRQLFKEFPSETLKRCRV | not soluble
MKIVIDLMGADHGVLPIIEGVSRALENKSFSVVLVGDKDKATPFISKELASKVEMIHTQDYIKMEEAATEAIKRKESSIYLGMDILKNGADALISAGHSGATMGLATLRLGRIKGVERPAICTLMPSVGKRPSVLLDAGANTDCKPEYLIDFALMGYEYAKSVLHYDSPKVGLLSNGEEDIKGNTLVKETHKMLKAYDFFYGNVEGSDIFKGVVDVVVCDGFMGNVVLKTTEGVASAIGSIFKDEIKSSFKSKMGALMLKNAFGILKQKTDYAEYGGAPLLGVNKSVIISHGKSNARAVECAIYQAISAVESQVCLRITQAFESLKSQSFESQSDQQDA | not soluble
MAHHHHHHMDTPEREVSPPPAEEDENKKRVIIILEGAHLQLIETKRYIYELANIMKHKHLLRDQKNEEEMRNFRPDILHQCLIHLLESALNKYGLLQVYIKTHDNQLFYVSSHLKIPKTYDQFESLMVTFLRKYKIKANEKNLCLLKFLKNDYSAILPINGKKIGLSVKGKKVHFSEYVQNLQNEDVPVTFFIGAVAYSNPITKLENLDDNICISEFSLSAATCCSTICSEFENLLGLF | soluble
GPGSMTKAASLKKGSGDKRAREASLQEATARKVKVETAAMLPKASHDSQAHPNLFSWLLNTSRGEFFRKYFERKHLVASHGSGEYFASGLPGVVPPVNWSTERMLEHVKTHPSRYGADLDIVKFDPKLKRRVSYRTKGLVDAAELEACMKDGWSVRFLRPNEFIESNSAFIGCIEKEFNCYCGANSYWTPANSQGFAPHYDDVDVFFLQLEGEKLWCLYDPPEDVDVLARHSSEDYAPERFPTPKHTITLKAGDVLYMPRGTVHQGKTTLKTHSLHITFSANQMNSWADFMSRAAQYTVETLAANKLEWRRALPRDMPQVMGEVNNPVFRDTHGLPALSANQQDHRANLQTKVREMVAELTLLLTDEVNMDVCADVYGKDTIQKLQPPSRTYSGAAPASRKLSHASRVRLISRNCMRLLLNVPGEARVYHIGQNSTVCLAGELGELRFEADFAPAIATLLSSYPKTMPVSALPFPGFDNSDDVAENQLLLVETLRDAGLLHVGSSAKGNAPS | soluble
MPSTSMIEDRSEIERRRFEYLDHPADIQLHSWGSTMEEAFEACLVSMFGYMTDLAKVDEMYEFYWKASGDSLDGLLFQFLDEALNSFHAEPCFVAKRVEILRFDKKKFEIEFRGWGESFDTSKHETEADIKSPTYSNMQINEKPERCDIYVIVDI | not soluble
MCSSETIVKLNVGGSVFETWKSTLTKQDGFFKTLVETNIPVKKDTSDCYFIDRSPKYFETVLNYMRSGVTVLPDSEKELQELKKEAEFYLLEQLVDLCEPINNQIRTYRSSHELLQIIASTKKPVVVINYITHNNDIIYIPEGFRFDEFVKKNSSVVEIYFQPMDNREPLPKDLRRHRGMKYYPEPVWSYRIYNSTHSGCVDLTAMDDLQKKIDSILNGE | not soluble

— the DeepSol protein solubility set
